# B1: ORP100S: thioredoxin with monothiol active site, Cys35 and non-active Cys 62, 69 and 73 substituted with serine (SEQ ID NO:29) (protein)
# chain: MVKQIESKTAFQEALDAAGDKLVVVDFSATWCGPSKMIKPFFHSLSEKYSNVIFLEVDVDDSQDVASESEVKSMPTFQFFKKGQKVGEFSGANKEKLEATINELV
# modifications: synthetic peptide motif
# What was measured:
# human insulin = target: T1, human insulin (Homo sapiens, UniProt P01308); assay: RP-HPLC insulin reduction assay (conversion of insulin heterodimer); type: biochemical; settings: for Relative % insulin reduction: relative to maximum
# T1 construct: The two chains of human insulin have a total of six Cys residues which form three disulfide bonds in its mature structure
# Method: Functional assays 1. Reduction state of ORP100S was quantified using DTNB which reacts with free SH groups resulting in a yellow color change at 412 nm. Fifty microliters of 2.5 mM rhTrx was added to a 96-well plate, followed by 175 microliters of sample buffer and 25 microliters of 6 mM DTNB. After reactions were initiated by the addition of DTNB, change in kinetic absorbance at 412 nm due to DTNB reduction was monitored spectrophotometrically at 30° C. ORP100S concentration was determined by A280 (Nanodrop) using the extinction coefficient of human Trx-1 (7,000). The actual concentrations of free sulfhydryl groups were calculated based on the absorbance at 412 nm and the extinction coefficient of DTNB (14,150) in order to determine the reduction state as percentage of free sulfhydryl. […] 2. Percent of free monomer ORP100S in solution was determined using SEC. Samples were analyzed on a BioBasic S-300 250×4.6 column (Thermo Scientific) run on an Agilent 1100 HPLC system. The SEC-HPLC mobile phase buffer consisted of 40 mM ammonium acetate (pH 5.5), 2 mM EDTA and 450 mM NaCl. Low pH minimized dimerization while the 450 mM NaCl concentration improved resolution. The flow rate was 0.35 mL/min and absorbance was monitored at 280 nm. The length of each run was 20 minutes. The ORP100S monomer percentage was determined by integration of the area under the peak of the monomeric fraction divided by the total area under the curve of the chromatogram. 3. Disulfide bond reduction activity of ORP100S was quantified by assaying the reduction state of a small protein (human insulin) which in its heterodimeric form contains two intermolecular and one intramolecular disulfide, all three of which are known to be suitable thioredoxin substrates. Insulin reduction has classically been used to quantify thioredoxin activity by absorbance change following addition of NADPH and TrxR (Holmgren A., 1979, Thioredoxin catalyzes the reduction of insulin disulfides by dithiothreitol and dihydrolipoamide, J Biol Chem 254:9627-32). Such an approach is not suitable for monothiol C35S thioredoxins ORP-100 and ORP100S due to 1) the lack of cycling resulting from stoichiometric covalent linkage to the disulfide bond substrate and 2) the inability of NADPH and TrxR to reduce Cys32 of the oxidized monothiol Trx active site. Consequently, a new assay was developed based on the use of reverse-phase (RP) HPLC to monitor the rate of conversion of disulfide-bonded insulin heterodimers to monomeric forms. The two chains of human insulin have a total of six Cys residues which form three disulfide bonds in its mature structure. When ORP100S in the reduced form is incubated with dimeric insulin it reacts with these disulfide bonds to disrupt them, simultaneously forming covalent linkages to the ORP100S Cys32. […] The ORP100S samples were incubated with 10 mg/mL insulin for various time points (0-90 min) and the reactions were stopped by addition of iodacetic acid (IA) and trifluoroacetic acid (TFA). Relative activity at each time point was determined from changes in the area under the insulin heterodimer peak following separation over RP-HPLC (Agilent 1100) using an Intrada WP-RP 50×3 (Imtakt) column. Buffer A was 0.1% TFA and Buffer B was 0.1% TFA in acetonitrile. The gradient was […] in 5 min followed by 30 to 60% B in 45 min, then 60 to 80% B for an additional 5 min. The flow rate was 0.2 mL/min and absorbance was measured at 280 nm. In order to evaluate the change in the intact insulin molecule a time 0 baseline was first established using 1 M IA and 0.1% TFA without the addition of ORP100S. The area under the intact insulin heterodimer peak was then determined and set as equivalent to 100%. After the reaction with ORP100S the area of the intact insulin peak (corresponding to retention time) was measured. The percent reduction in intact insulin was then calculated from the decrease in the area following reduction divided by the area at time 0 multiplied by 100.
# [1] = check for precipitates by centrifugation; type: physicochemical; settings: 25° C., 0-232 hours
# Method: The stability of ORP100S without the red fraction was evaluated at room temperature (25° C.) by SEC analysis as described in the preceding Examples. Protein solutions were prepared in PBS (saline) at concentrations of 70, 80, 90, 100 and 110 mg/ml corresponding to 6.0, 6.8, 7.7, 8.5 and 9.4 mM. These were incubated at room temperature for 0, 20, 44, 68, 140, 188 and 232 hours. At each time point tubes were centrifuged at 1000 RFC to check for precipitates and percent monomeric ORP100S determined by SEC. Additionally, at the 68 hr time point DTNB assays were performed to evaluate the degree of reduction.
# T1 sequence (P01308 25-54 limits assumed): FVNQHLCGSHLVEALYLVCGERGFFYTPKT
# T1 sequence (P01308 90-110 limits assumed): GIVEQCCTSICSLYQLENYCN
molecule,measurement,setting,value
B1,Relative % insulin reduction,human insulin; Ox:Red 0:100 mixture,100%
same,Relative % insulin reduction,human insulin; Ox:Red 25:75 mixture,72%
same,Relative % insulin reduction,human insulin; Ox:Red 50:50 mixture,51%
same,Relative % insulin reduction,human insulin; Ox:Red 75:25 mixture,36%
same,Relative % insulin reduction,human insulin; Ox:Red 100:0 mixture,8%
same,maximum insulin heterodimer reaction,"human insulin; fully reduced material, time and conditions used",45%
same,Precipitate (all time points),[1]; 70 mg/mL in PBS,None
same,Precipitate (all time points),[1]; 80 mg/mL in PBS,None
same,Precipitate (all time points),[1]; 90 mg/mL in PBS,None
same,Precipitate (all time points),[1]; 100 mg/mL in PBS,None
same,Precipitate (all time points),[1]; 110 mg/mL in PBS,None

# — US20230071765A1, “COMPOSITIONS HAVING THIOREDOXIN ACTIVITY AND RELATED METHODS” (ORPRO THERAPEUTICS, INC., priority 2020, published 2023)
